Source: PMC3426363 (Pharmaceutical research, 2011)
Blank lines part the entries; values can stand above or below the molecule they belong to.

Legend:
Type in all cases: in vitro ADME, human
UGT1A isoforms = conditions: across the UGT1A isoforms used (Tab.S1)
[1] = substrate: O=c1c(O)c(-c2ccccc2)oc2cc(O)ccc12; test: UGT1A9 glucuronidation kinetics of flavonols; conditions: other: UGT1A9, pH 6.5
[2] = substrate: O=c1c(O)c(-c2ccc(O)cc2)oc2cc(O)cc(O)c12; test: UGT1A9 glucuronidation kinetics of flavonols; conditions: other: UGT1A9, pH 6.5
[3] = substrate: O=c1c(O)c(-c2ccc(O)cc2)oc2cc(O)ccc12; test: UGT1A9 glucuronidation kinetics of flavonols; conditions: other: UGT1A9, pH 6.5
[4] = substrate: O=c1c(O)c(-c2ccccc2)oc2cc(O)ccc12; test: UGT1A10 glucuronidation kinetics of flavonols; conditions: other: UGT1A10, pH 6.5
[5] = substrate: O=c1c(O)c(-c2ccc(O)cc2)oc2cc(O)cc(O)c12; test: UGT1A10 glucuronidation kinetics of flavonols; conditions: other: UGT1A10, pH 6.5
[6] = substrate: O=c1c(O)c(-c2ccccc2)oc2cc(O)cc(O)c12; test: UGT1A10 glucuronidation kinetics of flavonols; conditions: other: UGT1A10, pH 6.5
[7] = substrate: O=c1c(O)c(-c2ccccc2)oc2cc(O)ccc12; test: UGT1A7 glucuronidation kinetics of flavonols; conditions: other: UGT1A7, pH 6.5
[8] = substrate: O=c1c(O)c(-c2ccc(O)cc2)oc2cc(O)cc(O)c12; test: UGT1A7 glucuronidation kinetics of flavonols; conditions: other: UGT1A7, pH 6.5
[9] = substrate: O=c1c(O)c(-c2ccccc2)oc2cc(O)cc(O)c12; test: UGT1A7 glucuronidation kinetics of flavonols; conditions: other: UGT1A7, pH 6.5
[10] = substrate: O=c1c(O)c(-c2ccccc2)oc2cc(O)ccc12; test: UGT1A8 glucuronidation kinetics of flavonols; conditions: other: UGT1A8, pH 6.5
[11] = substrate: O=c1c(O)c(-c2ccc(O)cc2)oc2cc(O)cc(O)c12; test: UGT1A8 glucuronidation kinetics of flavonols; conditions: other: UGT1A8, pH 6.5
[12] = substrate: O=c1c(O)c(-c2ccccc2)oc2cc(O)cc(O)c12; test: UGT1A8 glucuronidation kinetics of flavonols; conditions: other: UGT1A8, pH 6.5

Molecule: COc1ccc2c(=O)cc(-c3ccc(O)cc3)oc2c1 [4’H7MF, 4'-hydroxy-7-methoxyflavone]
glucuronidation rate (UGT1A isoforms): ≤ 0.9 nmol/mg/min

Molecule: COc1ccc2oc(-c3ccc(O)cc3)cc(=O)c2c1 [4’H6MF, 4'-hydroxy-6-methoxyflavone]
glucuronidation rate (UGT1A isoforms): ≤ 0.9 nmol/mg/min

Molecule: COc1cccc2oc(-c3ccc(O)cc3)cc(=O)c12 [4’H5MF, 4'-hydroxy-5-methoxyflavone]
glucuronidation rate (UGT1A isoforms): ≤ 0.9 nmol/mg/min

B1: UGT1A9 (Homo sapiens) (protein)
chain: GKLLVVPMDGSHWFTMRSVVEKLILRGHEVVVVMPEVSWQLGRSLNCTVKTYSTSYTLEDLDREFKAFAHAQWKAQVRSIYSLLMGSYNDIFDLFFSNCRSLFKDKKLVEYLKESSFDAVFLDPFDNCGLIVAKYFSLPSVVFARGILCHYLEEGAQCPAPLSYVPRILLGFSDAMTFKERVRNHIMHLEEHLLCHRFFKNALEIASEILQTPVTEYDLYSHTSIWLLRTDFVLDYPKPVMPNMIFIGGINCHQGKPLPMEFEAYINASGEHGIVVFSLGSMVSEIPEKKAMAIADALGKIPQTVLWRYTGTRPSNLANNTILVKWLPQNDLLGHPMTRAFITHAGSHGVYESICNGVPMVMMPLFGDQMDNAKRMETKGAGVTLNVLEMTSEDLENALKAVINDKSYKENIMRLSSLHKDRPVEPLDLAVFWVEFVMRHKGAPHLRPAAHDLTWYQYHSLDVIGFLLAVVLTVAFITFKCCAYGYRKCLGKKGRVKKAHKSKTH
Km ([1]; formation of 3-O-glucuronide): 0.22 ± 0.04 µM
Vmax ([1]; formation of 3-O-glucuronide): 4.60 ± 0.28 nmol/mg/min
Vmax/Km ([1]; formation of 3-O-glucuronide): 20910 µL/min/mg
Km ([1]; formation of 7-O-glucuronide): 1.50 ± 0.26 µM
Vmax ([1]; formation of 7-O-glucuronide): 2.04 ± 0.09 nmol/mg/min
Vmax/Km ([1]; formation of 7-O-glucuronide): 1360 µL/min/mg
Km ([2]; formation of 3-O-glucuronide): 0.32 ± 0.03 µM
Vmax ([2]; formation of 3-O-glucuronide): 1.92 ± 0.03 nmol/mg/min
Vmax/Km ([2]; formation of 3-O-glucuronide): 6000 µL/min/mg
Km ([2]; formation of 7-O-glucuronide): 3.87 ± 0.59 µM
Vmax ([2]; formation of 7-O-glucuronide): 0.87 ± 0.05 nmol/mg/min
Vmax/Km ([2]; formation of 7-O-glucuronide): 220 µL/min/mg
Km ([3]; formation of 3-O-glucuronide): 0.36 ± 0.03 µM
Vmax ([3]; formation of 3-O-glucuronide): 2.62 ± 0.05 nmol/mg/min
Vmax/Km ([3]; formation of 3-O-glucuronide): 7280 µL/min/mg
Km ([3]; formation of 7-O-glucuronide): 2.67 ± 0.56 µM
Vmax ([3]; formation of 7-O-glucuronide): 1.15 ± 0.08 nmol/mg/min
Vmax/Km ([3]; formation of 7-O-glucuronide): 430 µL/min/mg

B2: UGT1A10 (Homo sapiens) (protein)
chain: GKLLVVPMDGSHWFTMQSVVEKLILRGHEVVVVMPEVSWQLERSLNCTVKTYSTSYTLEDQNREFMVFAHAQWKAQAQSIFSLLMSSSSGFLDLFFSHCRSLFNDRKLVEYLKESSFDAVFLDPFDTCGLIVAKYFSLPSVVFTRGIFCHHLEEGAQCPAPLSYVPNDLLGFSDAMTFKERVWNHIVHLEDHLFCQYLFRNALEIASEILQTPVTAYDLYSHTSIWLLRTDFVLDYPKPVMPNMIFIGGINCHQGKPLPMEFEAYINASGEHGIVVFSLGSMVSEIPEKKAMAIADALGKIPQTVLWRYTGTRPSNLANNTILVKWLPQNDLLGHPMTRAFITHAGSHGVYESICNGVPMVMMPLFGDQMDNAKRMETKGAGVTLNVLEMTSEDLENALKAVINDKSYKENIMRLSSLHKDRPVEPLDLAVFWVEFVMRHKGAPHLRPAAHDLTWYQYHSLDVIGFLLAVVLTVAFITFKCCAYGYRKCLGKKGRVKKAHKSKTH
Km ([4]; formation of 3-O-glucuronide): 6.66 ± 0.66 µM
Vmax ([4]; formation of 3-O-glucuronide): 0.19 ± 0.01 nmol/mg/min
Vmax/Km ([4]; formation of 3-O-glucuronide): 30 µL/min/mg
Km ([4]; formation of 7-O-glucuronide): 8.74 ± 1.37 µM
Vmax ([4]; formation of 7-O-glucuronide): 0.26 ± 0.02 nmol/mg/min
Vmax/Km ([4]; formation of 7-O-glucuronide): 30 µL/min/mg
Km ([5]; formation of 3-O-glucuronide): 2.44 ± 0.55 µM
Vmax ([5]; formation of 3-O-glucuronide): 1.46 ± 0.16 nmol/mg/min
Vmax/Km ([5]; formation of 3-O-glucuronide): 600 µL/min/mg
Km ([5]; formation of 7-O-glucuronide): 3.34 ± 1.21 µM
Vmax ([5]; formation of 7-O-glucuronide): 1.10 ± 0.20 nmol/mg/min
Vmax/Km ([5]; formation of 7-O-glucuronide): 330 µL/min/mg
Km ([6]; formation of 3-O-glucuronide): 4.49 ± 0.61 µM
Vmax ([6]; formation of 3-O-glucuronide): 2.01 ± 0.14 nmol/mg/min
Vmax/Km ([6]; formation of 3-O-glucuronide): 450 µL/min/mg
Km ([6]; formation of 7-O-glucuronide): 3.96 ± 0.58 µM
Vmax ([6]; formation of 7-O-glucuronide): 0.77 ± 0.04 nmol/mg/min
Vmax/Km ([6]; formation of 7-O-glucuronide): 190 µL/min/mg

B3: UGT1A7 (Homo sapiens) (protein)
chain: GKLLVVPMDGSHWFTMQSVVEKLILRGHEVVVVMPEVSWQLGRSLNCTVKTYSTSYTLEDQDREFMVFADARWTAPLRSAFSLLTSSSNGIFDLFFSNCRSLFNDRKLVEYLKESCFDAVFLDPFDACGLIVAKYFSLPSVVFARGIFCHYLEEGAQCPAPLSYVPRLLLGFSDAMTFKERVWNHIMHLEEHLFCPYFFKNVLEIASEILQTPVTAYDLYSHTSIWLLRTDFVLEYPKPVMPNMIFIGGINCHQGKPVPMEFEAYINASGEHGIVVFSLGSMVSEIPEKKAMAIADALGKIPQTVLWRYTGTRPSNLANNTILVKWLPQNDLLGHPMTRAFITHAGSHGVYESICNGVPMVMMPLFGDQMDNAKRMETKGAGVTLNVLEMTSEDLENALKAVINDKSYKENIMRLSSLHKDRPVEPLDLAVFWVEFVMRHKGAPHLRPAAHDLTWYQYHSLDVIGFLLAVVLTVAFITFKCCAYGYRKCLGKKGRVKKAHKSKTH
Km ([7]; formation of 3-O-glucuronide): 1.61 ± 0.14 µM
Vmax ([7]; formation of 3-O-glucuronide): 2.04 ± 0.07 nmol/mg/min
Vmax/Km ([7]; formation of 3-O-glucuronide): 1270 µL/min/mg
Km ([7]; formation of 7-O-glucuronide): 23.17 ± 6.96 µM
Vmax ([7]; formation of 7-O-glucuronide): 0.44 ± 0.07 nmol/mg/min
Vmax/Km ([7]; formation of 7-O-glucuronide): 20 µL/min/mg
Km ([8]; formation of 3-O-glucuronide): 1.46 ± 0.32 µM
Vmax ([8]; formation of 3-O-glucuronide): 0.77 ± 0.04 nmol/mg/min
Vmax/Km ([8]; formation of 3-O-glucuronide): 530 µL/min/mg
Km ([8]; formation of 7-O-glucuronide): 11.56 ± 2.91 µM
Vmax ([8]; formation of 7-O-glucuronide): 1.10 ± 0.11 nmol/mg/min
Vmax/Km ([8]; formation of 7-O-glucuronide): 100 µL/min/mg
Km ([9]; formation of 3-O-glucuronide): 0.82 ± 0.08 µM
Vmax ([9]; formation of 3-O-glucuronide): 3.35 ± 0.11 nmol/mg/min
Km ([9]; formation of 7-O-glucuronide): 21.43 ± 6.09 µM
Vmax ([9]; formation of 7-O-glucuronide): 2.46 ± 0.34 nmol/mg/min
Vmax/Km ([9]; formation of 7-O-glucuronide): 110 µL/min/mg

B4: UGT1A8 (Homo sapiens) (protein)
chain: GKLLVVPMDGSHWFTMQSVVEKLILRGHEVVVVMPEVSWQLGKSLNCTVKTYSTSYTLEDLDREFMDFADAQWKAQVRSLFSLFLSSSNGFFNLFFSHCRSLFNDRKLVEYLKESSFDAVFLDPFDACGLIVAKYFSLPSVVFARGIACHYLEEGAQCPAPLSYVPRILLGFSDAMTFKERVRNHIMHLEEHLFCQYFSKNALEIASEILQTPVTAYDLYSHTSIWLLRTDFVLDYPKPVMPNMIFIGGINCHQGKPLPMEFEAYINASGEHGIVVFSLGSMVSEIPEKKAMAIADALGKIPQTVLWRYTGTRPSNLANNTILVKWLPQNDLLGHPMTRAFITHAGSHGVYESICNGVPMVMMPLFGDQMDNAKRMETKGAGVTLNVLEMTSEDLENALKAVINDKSYKENIMRLSSLHKDRPVEPLDLAVFWVEFVMRHKGAPHLRPAAHDLTWYQYHSLDVIGFLLAVVLTVAFITFKCCAYGYRKCLGKKGRVKKAHKSKTH
Km ([10]; formation of 3-O-glucuronide): 8.68 ± 1.21 µM
Vmax ([10]; formation of 3-O-glucuronide): 0.76 ± 0.04 nmol/mg/min
Vmax/Km ([10]; formation of 3-O-glucuronide): 90 µL/min/mg
Km ([10]; formation of 7-O-glucuronide): 27.32 ± 7.50 µM
Vmax ([10]; formation of 7-O-glucuronide): 0.65 ± 0.10 nmol/mg/min
Vmax/Km ([10]; formation of 7-O-glucuronide): 20 µL/min/mg
Km ([11]; formation of 3-O-glucuronide): 2.39 ± 0.47 µM
Vmax ([11]; formation of 3-O-glucuronide): 0.74 ± 0.04 nmol/mg/min
Vmax/Km ([11]; formation of 3-O-glucuronide): 310 µL/min/mg
Km ([11]; formation of 7-O-glucuronide): 6.77 ± 1.78 µM
Vmax ([11]; formation of 7-O-glucuronide): 1.01 ± 0.09 nmol/mg/min
Vmax/Km ([11]; formation of 7-O-glucuronide): 150 µL/min/mg
Km ([12]; formation of 3-O-glucuronide): 6.44 ± 1.28 µM
Vmax ([12]; formation of 3-O-glucuronide): 3.89 ± 0.47 nmol/mg/min
Vmax/Km ([12]; formation of 3-O-glucuronide): 600 µL/min/mg
Km ([12]; formation of 7-O-glucuronide): 4.88 ± 1.14 µM
Vmax ([12]; formation of 7-O-glucuronide): 0.79 ± 0.57 nmol/mg/min
Vmax/Km ([12]; formation of 7-O-glucuronide): 160 µL/min/mg

Continued, values first:

glucuronidation rate (UGT1A isoforms): ≤ 0.9 nmol/mg/min
Molecule: O=c1cc(-c2ccccc2)oc2cccc(O)c12 [5HF, 5-hydroxyflavone]

glucuronidation rate (UGT1A isoforms): ≤ 0.9 nmol/mg/min
Molecule: O=c1cc(-c2ccc(O)cc2)oc2cccc(O)c12 [5,4’DHF, 5,4'-dihydroxyflavone]

glucuronidation rate (UGT1A isoforms): ≤ 0.9 nmol/mg/min
Molecule: COc1cc(O)c2c(=O)cc(-c3ccccc3)oc2c1 [5H7MF, 5-hydroxy-7-methoxyflavone]

glucuronidation rate (UGT1A isoforms): ≤ 0.9 nmol/mg/min
Molecule: O=c1cc(-c2ccc(O)cc2)oc2ccccc12 [4’HF, 4'-hydroxyflavone]

glucuronidation rate (UGT1A isoforms): ≤ 0.9 nmol/mg/min
Molecule: COc1cc(O)c2c(=O)cc(-c3ccc(O)cc3)oc2c1 [5,4’DH7MF, 5,4'-dihydroxy-7-methoxyflavone]
